Experimental data published in PMC5125287 (Annals of Medicine, 2016).

Target: Recombinant carrier-free human βNGF (human, UniProt P01138 122-241)
Test: SPR; BIACORE; PDPN/Fc amine-coupled to a CM5 chip (6000 to 8000 RU); analyte injected at 5 μl/min; NGF at 1 μM; 20 °C; HBS-P (0.01 M Hepes pH 7.4/0.15 M NaCl/0.005% Surfactant P20); reference channel subtracted; regeneration with 1% heparin in PBS; 1:1 Langmuir fit, KD estimated by the steady-state affinity model
Conditions: both partners purified

Recombinant carrier-free human βNGF, sequence (P01138 122-241): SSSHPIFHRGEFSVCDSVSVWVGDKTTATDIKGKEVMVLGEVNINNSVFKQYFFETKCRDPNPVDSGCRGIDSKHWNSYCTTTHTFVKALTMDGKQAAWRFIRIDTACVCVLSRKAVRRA

B1: Human podoplanin extracellular domain/Fc chimera (Fc fusion, UniProt Q86YL7 23-131, looked up)
chain: ASTGQPEDDTETTGLEGGVAMPGAEDDVVTPGTSEDRYKSGLTTLVATSVNSVTGIRIEDLPTSESTVHAQEQSPSATASNVATSHSTEKVDGDTQTTVEKDGLSTVTL
B1 was tested, and the Kd was ~100 nM.
